Test results: patent publication US20190275081A1 (published 2019)

Columns and labels:
[1] = biological target: T1, NY-ESO-1 peptide on HLA-A*02:01 (human); test: killing
T1 peptide: SLLMWITQC

[2] = biological target: T1, NY-ESO-1 peptide on HLA-A*02:01; test: cytokine release

B1: 19305DP (TCR, V domains shown)
Valpha: SQQGEEDPQALSIQEGENATMNCSYKTSINNLQWYRQNSGRGLVHLILIRSNEREKHSGRLRVTLDTSKKSSSLLITASRAADTASYFCATDGGGTLTFGKGTMLLVSP
Vbeta: DAGVIQSPRHEVTEMGQEVTLRCKPISGHDYLFWYRQTMMRGLELLIYFNNNVPIDDSGMPEDRFSAKMPNASFSTLKIQPSEPRDSAVYFCASKWGGTEAFFGQGTRLTVV
B1: recognises [1].

B2: AL (TCR, V domains shown)
Valpha: QKEVEQNSGPLSVPEGAIASLNCTYSDRGSQSFFWYRQYSGKSPELIMSIYSNGDKEDGRFTAQLNKASQYVSLLIRDSQPSDSATYLCAVGGLTSSNTGKLIFGQGTTLQVKP
Vbeta: DVKVTQSSRYLVKRTGEKVFLECVQDMDHENMFWYRQDPGLGLRLIYFSYDVKMKEKGDIPEGYSVSREKKERFSLILESASTNQTSMYLCASSNQIYGYTFGSGTRLTVV
B2: recognises [1].

B3: JD (TCR, V domains shown)
Valpha: QKEVEQNSGPLSVPEGAIASLNCTYSDRGSQSFFWYRQYSGKSPELIMFIYSNGDKEDGRFTAQLNKASQYVSLLIRDSQPSDSATYLCAVGATNKLIFGTGTLLAVQP
Vbeta: EAGVTQFPSHSVIEKGQTVTLRCDPISGHDNLYWYRRVMGKEIKFLLHFVKESKQDESGMPNNRFLAERTGGTYSTLKVQPAELEDSGVYFCASSQAYGTEAFFGQGTRLTVV
B3: recognises [2].
